Test results: the supplement of paper PMC12764529
± gives the half width of the 95% confidence interval.

Columns and labels:
[1] = folding stability dG unfold from chymotrypsin proteolysis; higher = more stable
Outline: (§1)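 Only designs with AlphaFold2 dimer inter-PAE above 15 were retained; each was a mini-protein under 80 residues with no cysteine, in a PA-tagged cDNA display construct. After digestion with trypsin and chymotrypsin and sequencing, K50 was inferred by Bayesian fitting of counts, and unfolding free energy was derived per protease or combined against a sequence-predicted unfolded-state K50 and a shared folded-state K50.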

[2] = folding stability dG unfold from trypsin proteolysis; higher = more stable
Outline: as §1

[3] = folding stability dG unfold (combined trypsin and chymotrypsin); higher = more stable
Outline: as §1

Row | Sequence | folding stability dG unfold [1] [kcal/mol] | folding stability dG unfold [2] [kcal/mol] | folding stability dG unfold [3] [kcal/mol]
1 | SMNITVTYDPETDTVTIEIDDEEIDPETLRELLDAIPPNVKRVIIHVDHPETARTVEELAKETGLPVEIASA [r9_919_TrMRF] | 3.2 ± 0.13 | 3.96 ± 0.077 | 3.97 ± 0.12
2 | SAGVEELFRRLGAEVSVTRRPDGSLVVTFRLPDGRTIVVFVTPDGVRVVVVDPSGERRTLSLEDLKRLASAG [r14_578_TrMRF] | 4.098 ± 0.035 | 3.38 ± 0.059 | 3.83 ± 0.058
3 | NPGKPLEIDIEVDIFEFPGGKFAIITFPIRLPGNGYWVQIEFWINPDGGLVMKIDVYDPGNGKPEEITIPIS [r1_261_TrROS] | 5.04 ± 0.2 | 3.27 ± 0.27 | 4.64 ± 0.2
4 | SMYYLVTITVTIRKDGKPVSVTPIYLAVPPEKAEEVAAEIKKSHPDLEVTITMEVTEVSEDDEEVKELLKSA [r9_782_JUSTAS] | 3.36 ± 0.085 | 1.92 ± 0.13 | 2.79 ± 0.19
5 | SAGGSAGGSSMTITVTDLVTGEPGEIPEELKAELAAEAEESGSAVTFEITTPDGKKYRAEITPSAGGSAGGS [r12_41_JUSTAS] | 1.13 ± 0.088 | 0.928 ± 0.029 | 1.1 ± 0.1
6 | SAGGDEIVERVRQLFEDLGFPVEIVDDDAPDGVLRVRISPEAVEKLGPLVINLPFPDIKEVRTELLPSAGGS [r8_318_TrMRF] | 1.5 ± 0.015 | 0.968 ± 0.013 | 1.26 ± 0.025
7 | SAGGSDGEMITYPFLLPDGYLITIWISPENGQITEIEIMPIPAPPPEPPVEPKYGRDDGNGNKKYDSAGGSA [r2_78_TrROS] | 1.72 ± 0.088 | 1.14 ± 0.047 | 1.52 ± 0.16
8 | SAGDVPVPATFEVELPGDGTARVTVVRHPGAAPGGFDTVRVEFRPGPTSSVTLTYRVPPGSAPVPFLGGSAG [r5_47_TrMRF] | 1.33 ± 0.31 | 0.535 ± 0.16 | 0.965 ± 0.19
9 | SAVELPPDASITAVTVDPSGSRTVEVEVKTTTAYVYDPATGTTTTVPPGVRTVVTLPADVPVTVSFTSPSAG [r14_385_JUSTAS] | 0.484 ± 0.084 | 0.252 ± 0.099 | 0.413 ± 0.085
10 | SAGGSAKMKKVKITLYAKVKSLEEAKEIAEEIKKSFPSIEKVEVKTEPLEDGSLLVKVDAIFYVPESAGGSA [r15_726_TrMRF] | 4.17 ± 0.11 | 2.66 ± 0.072 | 3.7 ± 0.16
11 | SMKLKPGQTAKIVEIKENYIYIEVNGKKYKISLEELKEKGYEIKIVNGKIVEIRPKPKKKLSEEELKKLKSA [r9_842_TrROS_Hall] | 1.04 ± 0.16 | 1.13 ± 0.077 | 1.16 ± 0.15
12 | SAGGSAGGSAAMTVSEVSSSPDPSSDYLSFEVRTTETVKVPGTKAPVTTTVTTTPTKVSKLLSAGGSAGGSA [r18_41_JUSTAS] | -0.177 ± 0.25 | -0.237 ± 0.12 | -0.111 ± 0.12
13 | SAGGSAEITEIEIEEEGGRLRVRATVTNENGETFEFEAEIELPPPPPPEEVTLERDPETDEWKEVTSAGGSA [r15_335_TrROS_Hall] | 2.39 ± 0.087 | 2.17 ± 0.06 | 2.22 ± 0.12
14 | SDLDPNSTLVFSAPFPVSDPDALLEHAETVARELGPDVRVERVVFDPNTPNVAVVEVSVPGGTVTLVYSRSA [r9_1079_TrMRF] | 1.36 ± 0.061 | 1.24 ± 0.017 | 1.33 ± 0.062
15 | SAGGSAGGSAGGMKIIKLEDDYYLIPFDSPEQLKAYTDIFEKLGLPVVVLPDGRLLVKGSAGGSAGGSAGGS [r10_1027_TrMRF] | 2.52 ± 0.026 | 2.39 ± 0.053 | 2.49 ± 0.054
16 | SAGGMVDIYFPDAVIDDSGTKEDILEQLEKVTGKPIPEELREEILKGKTVEEIVELLKKRGFDVRVDSAGGS [r16_601_TrMRF] | 3.4 ± 0.059 | 2.8 ± 0.12 | 3.13 ± 0.12
17 | SAGGSPTIKLEILLPKEMTPEEVEALARELEEAGYEIVSIKVETVKDEDGREWVRVTITLRPKEDLSAGGSA [r2_442_TrROS_Hall] | 3.97 ± 0.045 | 3.21 ± 0.076 | 3.73 ± 0.092
18 | SAGGSKIHIPIDPESGNFRIKVYPPDEPKEVSIQFKDPDDPEEFMDRAIEEANEYANNGYRVEIEPSAGGSA [r2_118_TrROS] | -0.278 ± 0.58 | -0.52 ± 0.3 | -0.668 ± 0.48
19 | SAGGSAKKKEVKELTLVIKVKTEEEALKAAEELIRKLLPPDAEIVEVKVEKVKPGEVYITVKVRLKSAGGSA [r15_183_TrROS_Hall] | 3.99 ± 0.14 | 2.36 ± 0.12 | 3.67 ± 0.18
20 | SAGMKIRILILGKGDPAQVEALAKELEAKLKEELGTEDVEVETLPASLTEEAAEERAKEEKVDIVVYESAGG [r19_89_JUSTAS] | 1.08 ± 0.13 | 0.85 ± 0.045 | 0.99 ± 0.09
21 | SAGGSAGGSAGGPPVLAESTFSFPDGVTVRLAFLPDGKAIAELTPPDGSKIEVEFDVDASAGGSAGGSAGGS [r10_1184_TrMRF] | 0.203 ± 0.14 | -0.214 ± 0.11 | 0.189 ± 0.23

Row | Sequence | folding stability dG unfold [1] [kcal/mol] | folding stability dG unfold [2] [kcal/mol] | folding stability dG unfold [3] [kcal/mol]
22 | SAGGSAGGSAGYESVVNELKRKGYKVEVKKTPDGTYVVTVTKKDGTVETITLGPEGGKISSAGGSAGGSAGG [r17_503_JUSTAS] | 4.36 ± 0.12 | 2.67 ± 0.14 | 4.16 ± 0.15
23 | SAGGSAGGSAPPLDRVFVEVRVEPGEDAGVVVTHPDGRVLTAPADADVVFEFHPDVPVLVADASAGGSAGGS [r12_553_TrMRF] | 0.129 ± 0.12 | -1.27 ± 0.49 | -0.201 ± 0.18
24 | SAGGSTVKTITLEFTRDPSTGAITEAEAEIERLKNDPNWEVTDPTITPLPDGTVKVPAKVKIPSNANLSAGG [r13_428_JUSTAS] | 0.12 ± 0.27 | 0.116 ± 0.2 | 0.075 ± 0.23
25 | SAGGSAGGSAGSWELSYRFPGVQIEVTYSPEWGFITEIKVQPLPPPPPPSPEDAKEMKEKSAGGSAGGSAGG [r11_320_TrROS] | 2.56 ± 0.081 | 0.799 ± 0.083 | 2.02 ± 0.12
26 | SAGGSAGGSAGGWNYIIFTIRYEFEYKDPNGKTMKHEVEITIIIPIPPIKRDEDGKYKLSAGGSAGGSAGGS [r10_168_TrROS] | 3.35 ± 0.17 | 2.31 ± 0.17 | 2.79 ± 0.28
27 | SAWIPAKEIAKYLAKELQEKMPHPGMKIPVDVETNPEENYVRVDIDIEHPGDGGKWKFEIYIPPGDTIVSAG [r14_849_TrROS] | 1.8 ± 0.095 | 0.664 ± 0.038 | 1.29 ± 0.12
28 | SAGGSAGGSASYIPVTYSFFFPDKPYVERVEAEYELGPDGTPRILSAKVEVFPVDFSPDELSAGGSAGGSAG [r3_138_TrMRF] | 0.279 ± 0.16 | 0.823 ± 0.039 | 0.663 ± 0.068
29 | SAGGSAGGSAGMKTYTAEEIKNLPPGAKVIEVDGKLKIEIDGKIYTIEPGETVEIEPLEESAGGSAGGSAGG [r17_91_TrROS_Hall] | 2.04 ± 0.043 | 1.57 ± 0.078 | 1.89 ± 0.11
30 | SAGGIKEVKFDPKTNTLTVYLPEVGATITYNPTAGKLEIYSKDGKPKTIDVPTPSEMKKAILKAYKELKSAG [r5_467_TrMRF] | 2.84 ± 0.069 | 1.82 ± 0.064 | 2.69 ± 0.21
31 | SAMYKIRLKNGEEIELEGMSIEELEKLFPDVELEIEKVEKVPVVKAPSKEEAEELAKKLPPGAKIIVEDSAG [r14_445_TrROS_Hall] | 0.233 ± 0.36 | 0.287 ± 0.14 | 0.324 ± 0.3
32 | SAGGSAGGMVISLPNNYKIKLGITDAEFDEVKVYTGPNGPKKLVSGANIKLKIGISIYKSNDNSSAGGSAGG [r6_585_TrMRF] | 1.43 ± 0.19 | 1.24 ± 0.036 | 1.4 ± 0.17
33 | SAIVIPIRVQMPPNDPDALEQAKEIADYIADMMMEEGYPFKIEVDDIEWERNPNGHWTVEIPIKIKPPPSAG [r14_48_TrROS] | 1.25 ± 0.083 | 1.45 ± 0.18 | 1.38 ± 0.15
34 | SAGGSAGGSAGSIVTIPIAGLSPEEAEALIKEAIAAGEDKPIILVDEDGTPTVVPASELKSAGGSAGGSAGG [r11_541_JUSTAS] | -0.408 ± 0.035 | -0.189 ± 0.052 | -0.242 ± 0.079
35 | SAGGSAGGSAGSYPIEYIPAPPDRLWLIDPKNGKIYEIYLDPERGEYSFEEIKEFPLGLESAGGSAGGSAGG [r11_352_JUSTAS] | 1.66 ± 0.073 | 1.34 ± 0.045 | 1.57 ± 0.1
36 | SAGGSAGGSAGGGMKVKIETTKLPNGIWRVKVYDENGNFIGEKEFTSEEELEEFKKKVASSAGGSAGGSAGG [r7_476_JUSTAS] | 4.6 ± 0.14 | 2.98 ± 0.25 | 4.49 ± 0.19
37 | SAGGSAGGSAGGKWIMVDSPEDIKEFAEDQGYKIKVDNVHPFPGDKNHYMVWIEIEPPGSAGGSAGGSAGGS [r10_126_TrROS] | 1.13 ± 0.18 | 1.19 ± 0.12 | 1.18 ± 0.14
38 | SAGGSAGGSAGGKPKLIVRVKIKNENGEEIEIEIEVETLDEAKEAAKKLGFEIVEVEVLSAGGSAGGSAGGS [r10_882_TrROS_Hall] | 2.54 ± 0.081 | 3.94 ± 0.23 | 3.28 ± 0.19
39 | SDPILEILKDAFQEFGIPVQVSIEPDPDGKRVIPIRIMSPKDMDENGMKMQEQTFPIKVNGKKWRVEISWSA [r9_489_TrROS] | 1.31 ± 0.14 | 1.45 ± 0.084 | 1.41 ± 0.11
40 | SAGGSAGGSASITLTLGDTPLEVSTDPSTNTYTFTYPAPGLVLTLDVSTGKLSARPLAELASAGGSAGGSAG [r3_137_JUSTAS] | 1.69 ± 0.071 | 0.216 ± 0.11 | 1.13 ± 0.077
41 | SAGGSAGIEVHPEGTVRIEVGGRSLTVTPADAVDVTQEGDKIVVTITRRDADGTPVGTLPVTVELASAGGSA [r15_424_JUSTAS] | 0.835 ± 0.018 | -0.75 ± 0.088 | 0.52 ± 0.045
42 | SENWEPEPITFPDGITIWVMPDYGMIDIIDPDKGTFEMFMIRVDPNGKPEINPLTFKLDPPNGKIKDITPSA [r9_122_TrROS] | 0.572 ± 0.91 | 0.657 ± 0.2 | 0.49 ± 0.26
